This is an account of results in publication PMC4300205, “Human Cerberus Prevents Nodal-Receptor Binding, Inhibits Nodal Signaling, and Suppresses Nodal-Mediated Phenotypes” (PLoS ONE, 2015).

Sequences and labels used below:
B4: recombinant human Nodal (ligand, UniProt Q96S42 238-347, looked up)
chain: HHLPDRSQLCRKVKFQVDFNLIGWGSWIIYPKQYNAYRCEGECPNPVGEEFHPTNHAYIQSLLKRYQPHRVPSTCCAPVKTKPLSMLYVDNGRVLLDHHKDMIVEECGCL
notes: Nodal, human, recombinant (RnD Systems); source: bought: RnD Systems

What all share (assay): SPR; Biacore 2000; 200-300 RU of Fc fusion captured by anti-human IgG (Fc) antibody on a CM5 chip; concentration series of ligand injected at 50 ul/min; 25 C; HBS-EPS (0.01 M HEPES, 0.5 M NaCl, 3 mM EDTA, 0.005% Tween 20, pH 7.4); 1:1 Langmuir model with mass transport; Kd = kd/ka
The target in the assay “recombinant human Nodal” is B4. The note with it: both partners purified.
Another assay deals with T1, Recombinant Activin A (human, UniProt P08476 311-426).
T1 construct: Activin A (inhibin beta A chain), recombinant; source: bought: R&D Biosystems or Life Technologies; also produced in-house
T1 sequence (looked up): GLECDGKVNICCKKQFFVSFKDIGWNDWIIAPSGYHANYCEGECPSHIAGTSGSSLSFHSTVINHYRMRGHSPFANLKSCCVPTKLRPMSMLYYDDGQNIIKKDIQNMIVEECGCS
The note with it: both partners purified.

For assay [1], the target named is T2, Human Cerberus-hIgg-Fc (human, UniProt O95813 18-267).
T2 construct: signal peptide in the construct; also called Cerberus-Fc; full-length Cerberus-Fc; source: CHO cells, purified from conditioned medium (Protein A, SEC); not shown: Fc (human IgG1), C-terminal, kept
T2 sequence (looked up): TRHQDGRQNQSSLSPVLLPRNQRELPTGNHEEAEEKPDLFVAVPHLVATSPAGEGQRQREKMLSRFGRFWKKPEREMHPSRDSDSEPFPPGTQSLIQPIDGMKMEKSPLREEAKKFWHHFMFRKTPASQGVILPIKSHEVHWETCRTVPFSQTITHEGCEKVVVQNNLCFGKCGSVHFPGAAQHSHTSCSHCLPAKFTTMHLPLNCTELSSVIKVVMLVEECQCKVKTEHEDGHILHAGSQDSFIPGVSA
The note with it: both partners purified.

The target in assay [2] is T2, Human Cerberus-hIgg-Fc. The note with it: both partners purified. This is another data set of the same source.
The target of a further assay is T3, BMPRII-Fc (human, UniProt Q13873 27-150).
T3 construct: type II receptor BMPRII, human, extracellular domain-Fc fusion; Bought protein; source: bought: R&D Biosystems or Life Technologies
T3 sequence (looked up): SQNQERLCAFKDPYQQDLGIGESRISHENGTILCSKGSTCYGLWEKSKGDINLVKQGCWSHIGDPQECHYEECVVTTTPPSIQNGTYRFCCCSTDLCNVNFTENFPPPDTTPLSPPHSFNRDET
The note with it: both partners purified.

The target of another assay is T4, Cripto-1-Fc (human, UniProt P13385 31-151).
T4 construct: signal peptide in the construct; Cripto1 (1-151), amplicon from cDNA (Thermo Scientific) fused to the hIgg1-Fc domain by PCR; source: CHO cells, purified from conditioned medium (Protein A, SEC)
T4 sequence (looked up): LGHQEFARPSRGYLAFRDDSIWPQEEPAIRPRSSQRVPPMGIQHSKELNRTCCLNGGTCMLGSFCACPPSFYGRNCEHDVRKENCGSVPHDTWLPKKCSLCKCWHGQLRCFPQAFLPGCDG
The note with it: both partners purified.

A further assay addresses T5, human Cryptic-hIgg-Fc (human, UniProt P0CG37 26-158).
T5 construct: signal peptide in the construct; human Cryptic (1-158), joined to human IgG1 Fc by a 22 amino acid linker with a TEV site, a glycine/serine rich region and a FLAG-tag; Synthetic gene from GeneArt; also called Cryptic-Fc; source: CHO cells, purified from conditioned medium (Protein A, SEC)
The note with it: both partners purified.

Assay [3] has as its target T6, Human Cerberus-hIgg-Fc (human), O95813.
T6 chain: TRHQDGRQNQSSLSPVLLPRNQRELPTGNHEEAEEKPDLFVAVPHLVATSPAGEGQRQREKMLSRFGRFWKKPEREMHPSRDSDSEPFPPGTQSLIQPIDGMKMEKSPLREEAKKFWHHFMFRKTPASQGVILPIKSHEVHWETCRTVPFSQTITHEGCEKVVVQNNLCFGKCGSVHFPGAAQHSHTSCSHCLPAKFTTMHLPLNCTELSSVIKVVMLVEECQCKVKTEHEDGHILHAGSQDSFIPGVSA
The note with it: remark: other sources report otherwise.

T5 sequence (P0CG37 26-158): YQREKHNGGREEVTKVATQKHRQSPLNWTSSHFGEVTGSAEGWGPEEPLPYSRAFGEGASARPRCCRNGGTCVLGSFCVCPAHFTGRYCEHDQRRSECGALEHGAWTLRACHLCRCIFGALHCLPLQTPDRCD

B1: human ACTRIIB-hIgg-Fc (Fc fusion, UniProt Q13705 19-120, looked up)
chain: SGRGEAETRECIYYNANWELERTNQSGLERCEGEQDKRLHCYASWRNSSGTIELVKKGCWLDDFNCYDRQECVATEENPQVYFCCCEGNFCNERFTHLPEAG
notes: signal peptide in the construct; extracellular domain of human ActRIIB (1-120), joined to human IgG1 Fc by a 22 amino acid linker with a TEV site, a glycine/serine rich region and a FLAG-tag; Synthetic gene from GeneArt; also called ACTRIIB-Fc; source: CHO cells, purified from conditioned medium (Protein A, SEC)
As for B1, in the assay with recombinant human Nodal, the Kd (usually the constant that tells how readily two partners part at equilibrium) is around 10 nM; the koff (usually a measure of how fast the partners let go of each other) was around 0.00049 s⁻¹; the kon (as a rule, the rate constant with which the complex forms) was around 49000 M⁻¹ s⁻¹. In the assay with Recombinant Activin A, the Kd amounted to 0.018 nM, the koff turned out to be 2.7e-05 s⁻¹ and the kon is 1.5e+06 M⁻¹ s⁻¹.

B2: Recombinant GDF-11 (ligand, human, UniProt O95390 299-407, looked up)
chain: NLGLDCDEHSSESRCCRYPLTVDFEAFGWDWIIAPKRYKANYCSGQCEYMFMQKYPHTHLVQQANPRGSAGPCCTPTKMSPINMLYFNDKQQIIYGKIPGMVVDRCGCS
notes: GDF-11, recombinant; source: bought: R&D Biosystems or Life Technologies
With B2, in the assay with Human Cerberus-hIgg-Fc [1], binding was put at a Kd of 5800 nM, the koff worked out at 0.014 s⁻¹ and the kon worked out at 1200 M⁻¹ s⁻¹.

B3: human ALK4-hIgg-Fc (Fc fusion, UniProt P36896 24-110, looked up)
chain: SGPRGVQALLCACTSCLQANYTCETDGACMVSIFNLDGMEHHVRTCIPKVELVPAGKPFYCLSSEDLRNTHCCYTDYCNRIDLRVPS
notes: signal peptide in the construct; extracellular domain of human ALK4 (1-110), joined to human IgG1 Fc by a 22 amino acid linker with a TEV site, a glycine/serine rich region and a FLAG-tag; Synthetic gene from GeneArt; also called ALK4-Fc; source: CHO cells, purified
Take B3: in the assay with recombinant human Nodal, the Kd was around 15 nM, the off-rate (koff) was around 0.00032 s⁻¹ and the on-rate (kon) is around 46000 M⁻¹ s⁻¹. For the same molecule, in the assay with Recombinant Activin A, the Kd stood at 2.4 nM, the koff is 0.00048 s⁻¹ and the kon is 200000 M⁻¹ s⁻¹.

Consider B4, for which the dissociation constant Kd with Human Cerberus-hIgg-Fc [2] was determined as 1 nM; with Human Cerberus-hIgg-Fc [1] it was 1.1 nM; in the assay with BMPRII-Fc, 0.149 nM; in the assay with Cripto-1-Fc, 16 nM; with human Cryptic-hIgg-Fc, 2000 nM. Further, the koff with Human Cerberus-hIgg-Fc [1] was determined as 1.4e-05 s⁻¹; with BMPRII-Fc, 4.6e-05 s⁻¹; with Cripto-1-Fc it was 0.00026 s⁻¹; in the assay with human Cryptic-hIgg-Fc it was 0.001 s⁻¹. Further, the kon with Human Cerberus-hIgg-Fc [1] came to 13000 M⁻¹ s⁻¹; with BMPRII-Fc, 310000 M⁻¹ s⁻¹; with Cripto-1-Fc, 10000 M⁻¹ s⁻¹; with human Cryptic-hIgg-Fc, 550 M⁻¹ s⁻¹.

B5: Recombinant BMP-2, P12643 283-396 (ligand)
chain: QAKHKQRKRLKSSCKRHPLYVDFSDVGWNDWIVAPPGYHAFYCHGECPFPLADHLNSTNHAIVQTLVNSVNSKIPKACCVPTELSAISMLYLDENEKVVLKNYQDMVVEGCGCR
In assay [3], B5 registered a Kd of 3000 nM, a koff of 0.072 s⁻¹ and an on-rate constant (kon) of 24000 M⁻¹ s⁻¹.
